Among the data in patent US20260078171A1 are IC50, authentic virus neutralization, IC50, lentivirus-based pseudovirus neutralization and IC90, authentic virus neutralization values, retold here.

VYD224 (antibody), sequence (VH): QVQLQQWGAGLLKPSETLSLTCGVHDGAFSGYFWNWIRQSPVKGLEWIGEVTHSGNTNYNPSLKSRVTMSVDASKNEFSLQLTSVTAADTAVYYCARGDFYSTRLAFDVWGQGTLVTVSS
VYD224 (antibody), sequence (VL): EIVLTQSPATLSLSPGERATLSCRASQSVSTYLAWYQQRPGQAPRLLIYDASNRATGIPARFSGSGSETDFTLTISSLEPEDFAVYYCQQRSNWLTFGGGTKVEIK
VYD222 (antibody), sequence (VH): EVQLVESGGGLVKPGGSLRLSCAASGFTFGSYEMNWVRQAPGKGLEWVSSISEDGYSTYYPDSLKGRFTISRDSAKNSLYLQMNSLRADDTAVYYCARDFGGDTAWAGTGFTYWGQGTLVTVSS
VYD222 (antibody), sequence (VL): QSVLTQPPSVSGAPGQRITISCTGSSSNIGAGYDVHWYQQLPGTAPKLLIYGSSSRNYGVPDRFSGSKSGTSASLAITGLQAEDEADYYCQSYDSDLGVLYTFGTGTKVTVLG
ADI-58125 (antibody), sequence (VH): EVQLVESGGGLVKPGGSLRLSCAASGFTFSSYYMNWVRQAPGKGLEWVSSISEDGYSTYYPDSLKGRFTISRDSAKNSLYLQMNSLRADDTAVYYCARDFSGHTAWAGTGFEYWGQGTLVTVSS
ADI-58125 (antibody), sequence (VL): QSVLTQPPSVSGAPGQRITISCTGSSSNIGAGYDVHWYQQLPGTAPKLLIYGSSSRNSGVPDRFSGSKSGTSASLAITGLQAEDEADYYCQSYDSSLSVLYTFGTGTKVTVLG
VYD223 (antibody), sequence (VH): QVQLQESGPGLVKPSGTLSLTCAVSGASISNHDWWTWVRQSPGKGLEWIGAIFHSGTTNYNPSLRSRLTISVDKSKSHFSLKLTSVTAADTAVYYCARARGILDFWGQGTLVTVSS
VYD223 (antibody), sequence (VL): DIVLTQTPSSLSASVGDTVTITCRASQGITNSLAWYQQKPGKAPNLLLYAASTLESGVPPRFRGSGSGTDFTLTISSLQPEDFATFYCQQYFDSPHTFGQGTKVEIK

In the assay the target is SARS-CoV-2 Wild-type (D614G) spike glycoprotein (SARS-CoV-2) (UniProt P0DTC2). Briefly: cell-based or functional assay.
Substance VYD222 (antibody) returned an IC50, authentic virus neutralization of 0.033 mg/L; an IC50, lentivirus-based pseudovirus neutralization of 0.03 mg/L; an IC90, authentic virus neutralization of 0.193 mg/L.
LY-CoV1404 (antibody) registered an IC50, authentic virus neutralization of 0.021 mg/L and an IC90, authentic virus neutralization of 0.09 mg/L.
For the substance VYD224 (antibody), the IC50, authentic virus neutralization stood at 0.01 mg/L; the IC50, lentivirus-based pseudovirus neutralization was found to be 0.03 mg/L; the IC90, authentic virus neutralization came to 0.037 mg/L.
Turning to VYD223 (antibody), the IC50, authentic virus neutralization is 0.012 mg/L and the IC90, authentic virus neutralization was 0.014 mg/L.
ADI-58125 (antibody) yielded an IC50, authentic virus neutralization of 0.052 mg/L and an IC90, authentic virus neutralization of 0.192 mg/L.
Substance CoV2-2130 (antibody) came in with an IC50, authentic virus neutralization of 0.016 mg/L and an IC90, authentic virus neutralization of 0.074 mg/L.
